These results are taken from paper PMC4509936 (RNA, 2015).

The target in test [1] is T1, BMV 1a protein, carboxy-terminal flag-tagged version (Brome mosaic virus, UniProt P03588 1-961).
T1 sequence (looked up): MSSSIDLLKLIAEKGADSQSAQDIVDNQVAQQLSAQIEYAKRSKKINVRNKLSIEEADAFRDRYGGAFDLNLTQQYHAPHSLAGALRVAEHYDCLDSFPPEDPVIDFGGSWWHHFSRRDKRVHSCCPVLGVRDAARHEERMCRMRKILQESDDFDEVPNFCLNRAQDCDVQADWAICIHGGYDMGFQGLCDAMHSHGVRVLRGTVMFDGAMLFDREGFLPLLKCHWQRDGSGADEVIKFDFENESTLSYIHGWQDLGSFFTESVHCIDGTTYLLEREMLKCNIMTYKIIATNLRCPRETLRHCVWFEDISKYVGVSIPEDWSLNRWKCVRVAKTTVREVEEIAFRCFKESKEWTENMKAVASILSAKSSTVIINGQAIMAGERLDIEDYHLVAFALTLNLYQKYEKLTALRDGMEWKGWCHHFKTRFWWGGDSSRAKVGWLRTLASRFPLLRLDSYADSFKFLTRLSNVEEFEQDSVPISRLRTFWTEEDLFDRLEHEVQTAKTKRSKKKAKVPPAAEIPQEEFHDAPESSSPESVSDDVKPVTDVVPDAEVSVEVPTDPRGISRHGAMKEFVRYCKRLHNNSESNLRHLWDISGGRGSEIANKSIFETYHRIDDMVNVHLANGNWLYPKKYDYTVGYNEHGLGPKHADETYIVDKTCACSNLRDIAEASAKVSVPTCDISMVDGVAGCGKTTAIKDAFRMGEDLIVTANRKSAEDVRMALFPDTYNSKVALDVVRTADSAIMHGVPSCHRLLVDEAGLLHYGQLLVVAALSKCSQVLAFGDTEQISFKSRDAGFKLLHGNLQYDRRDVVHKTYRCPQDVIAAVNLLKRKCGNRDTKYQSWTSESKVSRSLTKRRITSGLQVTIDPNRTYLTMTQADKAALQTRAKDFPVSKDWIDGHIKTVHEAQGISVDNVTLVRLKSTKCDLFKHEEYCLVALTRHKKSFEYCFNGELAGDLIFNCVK
Description: co-IP.

Test [2] deals with T1, BMV 1a protein, carboxy-terminal …. Nature of the test: co-IP. The source holds these as a separate data set.

B1: Lsm1 (natural protein, S. cerevisiae (endogenous in YPH500), UniProt P47017 1-172, looked up)
chain: MSANSKDRNQSNQDAKRQQQNFPKKISEGEADLYLDQYNFTTTAAIVSSVDRKIFVLLRDGRMLFGVLRTFDQYANLILQDCVERIYFSEENKYAEEDRGIFMIRGENVVMLGEVDIDKEDQPLEAMERIPFKEAWLTKQKNDEKRFKEETHKGKKMARHGIVYDFHKSDMY
Take B1: the “fold enrichment compared with “Flag only” control” value in test [1] came to 2 fold. In addition, the “fold enrichment compared with “Flag only” controls” value in test [2] was 7 fold.

B2: Pat1 (natural protein, S. cerevisiae (endogenous in YPH500), UniProt P25644 1-796, looked up)
chain: MSFFGLENSGNARDGPLDFEESYKGYGEHELEENDYLNDETFGDNVQVGTDFDFGNPHSSGSSGNAIGGNGVGATARSYVAATAEGISGPRTDGTAAAGPLDLKPMESLWSTAPPPAMAPSPQSTMAPAPAPQQMAPLQPILSMQDLERQQRQMQQQFMNFHAMGHPQGLPQGPPQQQFPMQPASGQPGPSQFAPPPPPPGVNVNMNQMPMGPVQVPVQASPSPIGMSNTPSPGPVVGATKMPLQSGRRSKRDLSPEEQRRLQIRHAKVEKILKYSGLMTPRDKDFITRYQLSQIVTEDPYNEDFYFQVYKIIQRGGITSESNKGLIARAYLEHSGHRLGGRYKRTDIALQRMQSQVEKAVTVAKERPSKLKDQQAAAGNSSQDNKQANTVLGKISSTLNSKNPRRQLQIPRQQPSDPDALKDVTDSLTNVDLASSGSSSTGSSAAAVASKQRRRSSYAFNNGNGATNLNKSGGKKFILELIETVYEEILDLEANLRNGQQTDSTAMWEALHIDDSSYDVNPFISMLSFDKGIKIMPRIFNFLDKQQKLKILQKIFNELSHLQIIILSSYKTTPKPTLTQLKKVDLFQMIILKIIVSFLSNNSNFIEIMGLLLQLIRNNNVSFLTTSKIGLNLITILISRAALIKQDSSRSNILSSPEISTWNEIYDKLFTSLESKIQLIFPPREYNDHIMRLQNDKFMDEAYIWQFLASLALSGKLNHQRIIIDEVRDEIFATINEAETLQKKEKELSVLPQRSQELDTELKSIIYNKEKLYQDLNLFLNVMGLVYRDGEISELK
Regarding B2, the “fold enrichment compared with “Flag only” control” value in test [1] came to 4.5 fold. Also, the “fold enrichment compared with “Flag only” controls” value in test [2] turned out to be 25 fold.
